Values belong to the molecule of their own block, whether it stands above or below them.
Key:
TACI-1 [1] = target: T1, TACI-1 (Homo sapiens, UniProt O14836); experiment: NF-AT-driven secreted alkaline phosphatase reporter in TAg Jurkat T cells transfected with TACI-1; assay type: cell-based; parameters: expressed in transfected cells; host or cells: TAg Jurkat T cells, plasmid pBJ5-TACI-1; conditions: antibody-cross linked TACI-1 in TAg Jurkat T cells; CsA 100 ng/ml, FK506 500 pg/ml; EGTA increasing concentrations; CAML(1-146) co-transfected
T1 sequence (O14836 1-293): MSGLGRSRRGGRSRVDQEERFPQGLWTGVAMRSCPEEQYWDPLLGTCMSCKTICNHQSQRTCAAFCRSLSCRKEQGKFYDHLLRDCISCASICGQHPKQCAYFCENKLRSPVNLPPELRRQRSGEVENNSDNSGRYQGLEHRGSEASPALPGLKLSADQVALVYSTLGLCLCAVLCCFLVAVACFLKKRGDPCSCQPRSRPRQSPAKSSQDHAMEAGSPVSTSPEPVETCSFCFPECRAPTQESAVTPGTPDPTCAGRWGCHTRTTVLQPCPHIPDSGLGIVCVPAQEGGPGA
Experimental: FIG. 4. TACI-1 is a signaling protein that functions in the activation of NF-AT-specific transcription. FIG. 4A depicts the activation of an NF-AT-driven secreted alkaline phosphatase reporter. TAg Jurkat T cells, co-transfected with the SXNFAT reporter [Bram et al., Mol. Cell. Biol., 13:4760-4769 (1993)] and the expression plasmid pBJ5 [Takebe, Y, et al., Mol. Cell. Biol., 8:466-472 (1988)] containing either TACI-1-encoding cDNA (solid triangles) or nothing (circles), were treated with 50 ng/ml PMA and the indicated amounts of ionomycin in the presence (closed symbols) and absence (open symbols) of magnetic beads coated with immunoaffinity-purified anti-TACI-1 polyclonal antibodies. […] NF-AT activation was determined in TAg Jurkat T cells co-transfected with SXNFAT and pBJ5 (−TACI-1, left) or pBJ5-TACI-1 (+TACI-1, right), and treated with the indicated combinations of PMA (50 ng/ml), ionomycin (2 μM), CsA (100 ng/ml) and FK506 (500 pg/ml) in the presence of anti-TACI-1 antibody-coated beads (‘NS’, not stimulated). […] NF-AT activation was measured in the presence of EGTA in Jurkat T cells over expressing TACI-1. […] AP-1 activation was measured in TAg Jurkat T cells, co-transfected with a mouse metallothionein AP-1-SEAP reporter [Bram et al., 1991, supra] and pBJ5 containing no insert (−TACI-1, left) or TACI-1 cDNA (+TACI-1, right). […]

[2] = tested on: PMA plus ionomycin-induced NF-AT activity; experiment: PMA plus ionomycin-induced NF-AT activity in Jurkat T cells (specificity control); assay type: cell-based, human; conditions: co-transfection in Jurkat T cells
Experimental: To examine whether TACI-1 signaling depends on the association of TACI-1 with CAML. the interacting domain of CAML (residues 1-146) is tested to determine if it can inhibit TACI-1-induced NF-AT activation in a dominant negative fashion. […] CAML(1-146) lacks the hydrophobic transmembrane domains that are required for Ca^2+ influx activity [Holloway & Bram, Biol. Chem., 271:8549-8552 (1996)].

TACI-1 [3] = target: T1, TACI-1; experiment: Co-immunoprecipitation with FLAG-tagged TACI-1 from 293T cell lysates; assay type: binding; conditions: anti-FLAG agarose beads
Experimental: FIGS. 5A-5D. TACI-1 interaction with CAML is critical for Ca^2+ signaling. […] Full-length cDNAs and indicated deletion mutants of TACI-1 and CAML were cloned into the yeast expression plasmids pACT and/or pAS1, and the indicated combinations were tested for interaction with the yeast 2-hybrid system (‘+’, positive interaction; ‘−’, no interaction; ‘ND’, not done). FIG. 5D depicts the co-immunoprecipitation of CAML with TACI-1. 293T cells were transfected with the indicated combinations of the expression plasmid pBJ5 containing cDNAs for CAML. TACI-1 with an N-terminal FLAG tag, the N-terminal 146 amino acids of CAML (CLX91), or no insert. After incubation for 48 hours, the cells were lysed (1% dodecyl maltoside, 20 […] HEPES pH 7.4. 150 mM NaCl, 10% glycerol, 2 mM MgSO4, 1 mM CaCl2, 1 mM PMSF) and the lysate was clarified by centrifugation. FLAG-tagged TACI-1 and associated proteins were immunoprecipitated with anti-FLAG monoclonal antibody-conjugated agarose beads and subjected to Western transfer using standard protocols. […] NF-AT activation was determined in TAg Jurkat cells transfected with pBJ5 alone, pBJ5-TACI-1 plus the control plasmid, or pBJ5-TACI-1 with an equivalent amount of CLX91, following treatment with TACI-1-specific antibodies (top). TACI-1 expression in these transfections was determined by Western blot using anti-TACI-1 polyclonal antibodies (bottom). […]

effect on TACI-1-mediated NF-AT activation (TACI-1 [1]): inhibition
Molecule: O=C(O)CN(CCOCCOCCN(CC(=O)O)CC(=O)O)CC(=O)O [EGTA, reference compound]

co-immunoprecipitation with TACI-1 (TACI-1 [3]): co-immunoprecipitated
effect on TACI-1-mediated NF-AT activation (TACI-1 [1]): completely eliminates
B1: CAML(1-146): N-terminal 146 amino acids of CAML, expressed from plasmid; dominant negative inhibitor of TACI-1 signaling (protein, UniProt P49069 1-146, looked up, fragment)
chain: MESMAVATDGGERPGVPAGSGLSASQRRAELRRRKLLMNSEQRINRIMGFHRPGSGAEEESQTKSKQQDSDKLNSLSVPSVSKRVVLGDSVSTGTTDQQGGVAEVKGTQLGDKLDSFIKPPECSSDVNLELRQRNRGDLTADSVQR
effect on PMA plus ionomycin-induced NF-AT activity [2]: no inhibitory effect

— patent US6500428B1, “Antibodies to a lymphocyte surface receptor that binds CAML and methods of use thereof” (St. Jude Children's Research Hospital, priority 1997, dated 2002)
